B1: CPS1 probe (dsDNA)
DNA 1: AATCATTTTTCATTTGACTGCCAAGGTAATCATTTTTCATTTGACTGCCAAGGT
DNA 2: ACCTTGGCAGTCAAATGAAAAATGATTACCTTGGCAGTCAAATGAAAAATGATT
B2: DXS2 probe (dsDNA)
DNA 1: TAAATCCTGACATTTGAATAGTATATTAAATCCTGACATTTGAATAGTATAT
DNA 2: ATATACTATTCAAATGTCAGGATTTAATATACTATTCAAATGTCAGGATTTA
B3: CYP76AH1 probe (dsDNA)
DNA 1: TATAATAGAACATTTGGGCGATGCTATATAATAGAACATTTGGGCGATGCTA
DNA 2: TAGCATCGCCCAAATGTTCTATTATATAGCATCGCCCAAATGTTCTATTATA
B4: KSL1 probe (dsDNA)
DNA 1: TGCATCATCTCATTTGGAGTTTAAAATGCATCATCTCATTTGGAGTTTAAAA
DNA 2: TTTTAAACTCCAAATGAGATGATGCATTTTAAACTCCAAATGAGATGATGCA

Target: bHLH130-His (SmbHLH130) (Salvia miltiorrhiza, UniProt A0A0H3Y8V8 1-394)
Experiment: EMSA

Binding result, binds:
B1
B2
B3
B4

— PMC13031064
